Earlier results as cited in PMC4692369.

Target: Tyr57 (UniProt position 57, QIAAFYRQGLG)
Assay: UV-vis
Conditions: apo enzyme

Substance: Ketosteroid isomerase D40N (earlier construct without LVPR) (Pseudomonas putida; D40N)
- pKa: 6.3
